Assay results: article PMC9352680, “A comprehensive thermodynamic model for RNA binding by the Saccharomyces cerevisiae Pumilio protein PUF4”

T1: PUF4 RNA-binding domain (Saccharomyces cerevisiae, UniProt P25339 537-888)
T1 sequence: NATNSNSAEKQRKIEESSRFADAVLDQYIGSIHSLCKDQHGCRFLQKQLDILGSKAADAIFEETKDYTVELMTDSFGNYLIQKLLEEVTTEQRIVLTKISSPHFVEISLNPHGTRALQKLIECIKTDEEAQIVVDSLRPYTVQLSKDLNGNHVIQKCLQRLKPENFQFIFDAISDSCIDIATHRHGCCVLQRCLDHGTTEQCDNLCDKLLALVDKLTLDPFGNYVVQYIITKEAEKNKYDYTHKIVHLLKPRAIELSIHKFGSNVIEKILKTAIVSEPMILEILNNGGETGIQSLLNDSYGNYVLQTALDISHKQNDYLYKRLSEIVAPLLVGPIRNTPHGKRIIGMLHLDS

B1: Ic_S2_P3E.1_K3.1_C3.1_H3.1_A3.1_F3.1_[T7G]_[A8C]_T3.1 (ssRNA)
RNA: UUUGAUUAAUAUGAUAUCGUUCUUUCUUGUAUAGCUUCUUUCUCGAUAUCAUAUUAAUCUUU
B2: Ic_S2_P3E.1_K3.1_C3.1_H3.1_A3.1_F3.1_[T7G]_[A8T]_T3.1 (ssRNA)
RNA: UUUGAUUAAUAUGAUAUCGUUCUUUCUUGUAUAGUUUCUUUCUCGAUAUCAUAUUAAUCUUU

biological target: T1, PUF4 RNA-binding domain; assay: Mg; RNA-MaP; 20 mM Na-HEPES pH 7.4, 30 mM KOAc, 0.75 mM MgCl2, 0.1% Tween-20, 5% glycerol, 0.1 mg/mL BSA, 2 mM DTT; 25 C; 0.0125-409.6 nM protein; settings: tags: N-His6-TEV cleaved; C-SNAP kept, Cy3B-labelled; label: tethered on chip by stalled RNA polymerase

Going from UCUCUUUCCUCUGUAUAUUAUCUCUU (ssRNA) [Ie_S1_P4E.1_K4.1_C4.1_H4.1_[+1CCTCT]_A4.1_F4.1_T4.1] to UCUCUUUUUCCGUAUAUUAUCUCUU (ssRNA) [Ie_S1_P4E.1_K4.1_C4.1_H4.1_[+1TTCC]_A4.1_F4.1_T4.1], the Kd rises from 0.539 nM to 36.3 nM (67-fold).

First: UCUCUUUUCGUAUAUUAUCUCUU (ssRNA) [Ie_S1_P4E.1_K4.1_C4.1_H4.1_[+1TC]_A4.1_F4.1_T4.1]
Second: UCUCUUUGCCUUAUAUUAUCUCUU (ssRNA) [Ie_S1_P4E.1_K4.1_C4.1_H4.1_[+2CCT]_A4.1_F4.1_T4.1]
The Kd of the first is 55-fold lower: 24.4 nM for the first, 1330 nM for the second.

First: UCUCUUUGCUCUCUAUAUUAUCUCUU (ssRNA) [Ie_S1_P4E.1_K4.1_C4.1_H4.1_[+2CTCTC]_A4.1_F4.1_T4.1]
Second: UCUCUUUGUAUAUUUAUCUCUU (ssRNA) [Ie_S1_P4E.1_K4.1_C4.1_H4.1_A4.1_F4.1_[+8T]_T4.1]
The Kd of the first is 310-fold higher: 733 nM for the first, 2.39 nM for the second.

Compared with UCUCUUUGUUCUCAUAUUAUCUCUU (ssRNA) [Ie_S1_P4E.1_K4.1_C4.1_H4.1_[+3TCTC]_A4.1_F4.1_T4.1], UCUCUUUGCUCUAUAUUAUCUCUU (ssRNA) [Ie_S1_P4E.1_K4.1_C4.1_H4.1_[+2CTC]_A4.1_F4.1_T4.1] is 5.7-fold higher in Kd: 103 nM for the first, 583 nM for the second.

Going from UCUCUUUGUCUCUAUAUUAUCUCUU (ssRNA) [Ie_S1_P4E.1_K4.1_C4.1_H4.1_[+3CTCT]_A4.1_F4.1_T4.1] to UCUCUUUCUCUCGUAUAUUAUCUCUU (ssRNA) [Ie_S1_P4E.1_K4.1_C4.1_H4.1_[+1CTCTC]_A4.1_F4.1_T4.1], the Kd falls from 121 nM to 27.9 nM (4.3-fold). The second binds more tightly here.

Compared with UCUCUUUGUUCAUAUUAUCUCUU (ssRNA) [Ie_S1_P4E.1_K4.1_C4.1_H4.1_[+3TC]_A4.1_F4.1_T4.1], UCUCUUCUUGUAUAUAUCUCUUAUCUCUU (ssRNA) [Ie_S1_P3E.2_K3.1_C3.2_H3.1_A3.1_F3.1_[+8TCTCT]_T3.2] is 16-fold lower in Kd: 134 nM for the first, 8.49 nM for the second. The second binds more tightly here.

Going from UCUCUUCUUGUAUAUAUUCCUUAUCUCUU (ssRNA) [Ie_S1_P3E.2_K3.1_C3.2_H3.1_A3.1_F3.1_[+8TTCCT]_T3.2] to UCUCUUUGUCUAUAUUAUCUCUU (ssRNA) [Ie_S1_P4E.1_K4.1_C4.1_H4.1_[+2TC]_A4.1_F4.1_T4.1], the Kd rises from 6.43 nM to 82.9 nM (13-fold).

UCUCUUUCUUGUAUAUUAUCUCUU (ssRNA) [Ie_S1_P4E.1_K4.1_C4.1_H4.1_[+1CTT]_A4.1_F4.1_T4.1] and UCUCUUUUGUAUAUUAUCUCUU (ssRNA) [Ie_S1_P4E.1_K4.1_C4.1_H4.1_[+1T]_A4.1_F4.1_T4.1] are within 1.5-fold of each other in Kd: 0.599 nM for the first, 0.567 nM for the second.

First: UCUCUUUGUUUAUAUUAUCUCUU (ssRNA) [Ie_S1_P4E.1_K4.1_C4.1_H4.1_[+2TT]_A4.1_F4.1_T4.1]
Second: UCUCUUUGCUAUAUUAUCUCUU (ssRNA) [Ie_S1_P4E.1_K4.1_C4.1_H4.1_[+2C]_A4.1_F4.1_T4.1]
The Kd of the first is 1.8-fold lower: 60.9 nM for the first, 107 nM for the second. The first binds more tightly here.

Compared with UCUCUUUGCCUAUAUUAUCUCUU (ssRNA) [Ie_S1_P4E.1_K4.1_C4.1_H4.1_[+2CC]_A4.1_F4.1_T4.1], UCUCUUUCCCGUAUAUUAUCUCUU (ssRNA) [Ie_S1_P4E.1_K4.1_C4.1_H4.1_[+1CCC]_A4.1_F4.1_T4.1] is 63-fold lower in Kd: 1390 nM for the first, 22.1 nM for the second.

Going from UCUCUUUGCUUAUAUUAUCUCUU (ssRNA) [Ie_S1_P4E.1_K4.1_C4.1_H4.1_[+2CT]_A4.1_F4.1_T4.1] to UCUCUUUUCUCGUAUAUUAUCUCUU (ssRNA) [Ie_S1_P4E.1_K4.1_C4.1_H4.1_[+1TCTC]_A4.1_F4.1_T4.1], the Kd falls from 870 nM to 19.7 nM (44-fold). The second binds more tightly here.

First: UCUCUUCUUGUAUAUACCCUUUAUCUCUU (ssRNA) [Ie_S1_P3E.2_K3.1_C3.2_H3.1_A3.1_F3.1_[+8CCCTT]_T3.2]
Second: UCUCUUUGUCUCUUAUAUUAUCUCUU (ssRNA) [Ie_S1_P4E.1_K4.1_C4.1_H4.1_[+2TCTCT]_A4.1_F4.1_T4.1]
The Kd of the first is 14-fold lower: 9.52 nM for the first, 134 nM for the second.

First: UCUCUUUGUCUCAUAUUAUCUCUU (ssRNA) [Ie_S1_P4E.1_K4.1_C4.1_H4.1_[+3CTC]_A4.1_F4.1_T4.1]
Second: UCUCUUUGCCCUUAUAUUAUCUCUU (ssRNA) [Ie_S1_P4E.1_K4.1_C4.1_H4.1_[+2CCCT]_A4.1_F4.1_T4.1]
The Kd of the first is 29-fold lower: 37.3 nM for the first, 1080 nM for the second. The first binds more tightly here.

UCUCUUUUUGUAUAUUAUCUCUU (ssRNA) [Ie_S1_P4E.1_K4.1_C4.1_H4.1_[+1TT]_A4.1_F4.1_T4.1] and UCUCUUUCUGUAUAUUAUCUCUU (ssRNA) [Ie_S1_P4E.1_K4.1_C4.1_H4.1_[+1CT]_A4.1_F4.1_T4.1] are within 1.5-fold of each other in Kd: 0.914 nM for the first, 0.72 nM for the second.

Going from UCUCUUUCUCUGUAUAUUAUCUCUU (ssRNA) [Ie_S1_P4E.1_K4.1_C4.1_H4.1_[+1CTCT]_A4.1_F4.1_T4.1] to UCUCUUUGUUUUAUAUUAUCUCUU (ssRNA) [Ie_S1_P4E.1_K4.1_C4.1_H4.1_[+3TTT]_A4.1_F4.1_T4.1], the Kd rises from 0.881 nM to 32.9 nM (37-fold). The first binds more tightly here.

Compared with UCUCUUUGUUCCUAUAUUAUCUCUU (ssRNA) [Ie_S1_P4E.1_K4.1_C4.1_H4.1_[+2TTCC]_A4.1_F4.1_T4.1], UCUCUUUCCCUUGUAUAUUAUCUCUU (ssRNA) [Ie_S1_P4E.1_K4.1_C4.1_H4.1_[+1CCCTT]_A4.1_F4.1_T4.1] is 220-fold lower in Kd: 101 nM for the first, 0.454 nM for the second. The second binds more tightly here.

First: UCUCUUUUCUCUGUAUAUUAUCUCUU (ssRNA) [Ie_S1_P4E.1_K4.1_C4.1_H4.1_[+1TCTCT]_A4.1_F4.1_T4.1]
Second: UCUCUUUGUAUACUUAUCUCUU (ssRNA) [Ie_S1_P4E.1_K4.1_C4.1_H4.1_A4.1_[+6C]_F4.1_T4.1]
The Kd of the first is 7.4-fold lower: 0.586 nM for the first, 4.35 nM for the second.

First: UCUCUUUGCCUCUUAUAUUAUCUCUU (ssRNA) [Ie_S1_P4E.1_K4.1_C4.1_H4.1_[+2CCTCT]_A4.1_F4.1_T4.1]
Second: B1
The Kd of the first is 20-fold higher: 2130 nM for the first, 109 nM for the second. The second binds more tightly here.

Compared with B2, UCUCUUUUUCCUGUAUAUUAUCUCUU (ssRNA) [Ie_S1_P4E.1_K4.1_C4.1_H4.1_[+1TTCCT]_A4.1_F4.1_T4.1] is 22-fold lower in Kd: 25.9 nM for the first, 1.18 nM for the second.

First: UCUCUUUCCCUGUAUAUUAUCUCUU (ssRNA) [Ie_S1_P4E.1_K4.1_C4.1_H4.1_[+1CCCT]_A4.1_F4.1_T4.1]
Second: UCUCUUUGUCCUAUAUUAUCUCUU (ssRNA) [Ie_S1_P4E.1_K4.1_C4.1_H4.1_[+2TCC]_A4.1_F4.1_T4.1]
The Kd of the first is 34-fold lower: 1.2 nM for the first, 40.4 nM for the second. The first binds more tightly here.

UCUCUUUGUUCUAUAUUAUCUCUU (ssRNA) [Ie_S1_P4E.1_K4.1_C4.1_H4.1_[+3TCT]_A4.1_F4.1_T4.1] and UCUCUUUUUCGUAUAUUAUCUCUU (ssRNA) [Ie_S1_P4E.1_K4.1_C4.1_H4.1_[+1TTC]_A4.1_F4.1_T4.1] are within 1.5-fold of each other in Kd: 27.2 nM for the first, 20.9 nM for the second.

First: UCUCUUUGUUUCCAUAUUAUCUCUU (ssRNA) [Ie_S1_P4E.1_K4.1_C4.1_H4.1_[+3TTCC]_A4.1_F4.1_T4.1]
Second: UCUCUUUGUCUUAUAUUAUCUCUU (ssRNA) [Ie_S1_P4E.1_K4.1_C4.1_H4.1_[+2TCT]_A4.1_F4.1_T4.1]
The Kd of the first is 1.8-fold higher: 83.7 nM for the first, 45.9 nM for the second.

Compared with UCUCUUUUCUGUAUAUUAUCUCUU (ssRNA) [Ie_S1_P4E.1_K4.1_C4.1_H4.1_[+1TCT]_A4.1_F4.1_T4.1], UCUCUUUGCUCUUAUAUUAUCUCUU (ssRNA) [Ie_S1_P4E.1_K4.1_C4.1_H4.1_[+2CTCT]_A4.1_F4.1_T4.1] is 1800-fold higher in Kd: 0.546 nM for the first, 984 nM for the second. The first binds more tightly here.

Compared with UCUCUUUCCUGUAUAUUAUCUCUU (ssRNA) [Ie_S1_P4E.1_K4.1_C4.1_H4.1_[+1CCT]_A4.1_F4.1_T4.1], UCUCUUUGCCUCUAUAUUAUCUCUU (ssRNA) [Ie_S1_P4E.1_K4.1_C4.1_H4.1_[+2CCTC]_A4.1_F4.1_T4.1] is 1700-fold higher in Kd: 0.583 nM for the first, 1010 nM for the second. The first binds more tightly here.
